Experimental findings from patent US20160331662A1, “Compositions that Inhibit and Prevent the Formation of Dental Caries and Methods of Using the Same” (priority 2014, published 2016) are described below.

Assay [1] deals with salivary agglutinin (SAG) (human) (UniProt Q9UGM3). Briefly: SPR, analyte over SAG immobilized on CM5 chip, 1:1 Langmuir model. On the technique in general: In SPR one partner is held on a chip, and binding of the other changes the refractive index at the surface.
Assay [2] deals with iSRCR123 (Deglycosylated) (human) (UniProt Q9UGM3). The assay can be described thus: SPR, analyte over ligand deglycosylated on the CM5 chip, 1:1 Langmuir model.
iSRCR123 (Deglycosylated) (human), sequence (Q9UGM3 102-463 limits assumed): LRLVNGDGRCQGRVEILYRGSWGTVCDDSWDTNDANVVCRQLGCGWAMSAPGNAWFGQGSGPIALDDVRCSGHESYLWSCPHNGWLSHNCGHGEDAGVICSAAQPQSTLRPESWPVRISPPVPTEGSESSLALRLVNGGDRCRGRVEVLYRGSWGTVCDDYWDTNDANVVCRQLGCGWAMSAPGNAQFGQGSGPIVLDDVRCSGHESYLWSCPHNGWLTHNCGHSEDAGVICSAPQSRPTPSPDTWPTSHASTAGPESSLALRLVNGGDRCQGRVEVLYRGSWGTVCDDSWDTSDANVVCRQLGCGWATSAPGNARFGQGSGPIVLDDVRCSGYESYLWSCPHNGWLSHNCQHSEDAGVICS
Assay [3] has as its target iSRCR1 (Deglycosylated) (human) (UniProt Q9UGM3). The assay is described as above.
The target in another assay is iSRCR123 (human) (UniProt Q9UGM3). The assay can be described thus: SPR, analyte over ligand immobilized on CM5 chip, 1:1 Langmuir model.
iSRCR123 (human), sequence (Q9UGM3 102-463 limits assumed): as above

In general, Kd refers to the constant that tells how readily two partners part at equilibrium. The low end stands for higher affinity, the high end for lower affinity.

iSRCR1 (Deglycosylated) (human), sequence (Q9UGM3 102-202): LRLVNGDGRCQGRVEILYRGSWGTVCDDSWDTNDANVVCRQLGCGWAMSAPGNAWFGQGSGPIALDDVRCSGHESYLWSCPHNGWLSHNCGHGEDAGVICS
salivary agglutinin (SAG) (human), sequence (Q9UGM3 whole entry): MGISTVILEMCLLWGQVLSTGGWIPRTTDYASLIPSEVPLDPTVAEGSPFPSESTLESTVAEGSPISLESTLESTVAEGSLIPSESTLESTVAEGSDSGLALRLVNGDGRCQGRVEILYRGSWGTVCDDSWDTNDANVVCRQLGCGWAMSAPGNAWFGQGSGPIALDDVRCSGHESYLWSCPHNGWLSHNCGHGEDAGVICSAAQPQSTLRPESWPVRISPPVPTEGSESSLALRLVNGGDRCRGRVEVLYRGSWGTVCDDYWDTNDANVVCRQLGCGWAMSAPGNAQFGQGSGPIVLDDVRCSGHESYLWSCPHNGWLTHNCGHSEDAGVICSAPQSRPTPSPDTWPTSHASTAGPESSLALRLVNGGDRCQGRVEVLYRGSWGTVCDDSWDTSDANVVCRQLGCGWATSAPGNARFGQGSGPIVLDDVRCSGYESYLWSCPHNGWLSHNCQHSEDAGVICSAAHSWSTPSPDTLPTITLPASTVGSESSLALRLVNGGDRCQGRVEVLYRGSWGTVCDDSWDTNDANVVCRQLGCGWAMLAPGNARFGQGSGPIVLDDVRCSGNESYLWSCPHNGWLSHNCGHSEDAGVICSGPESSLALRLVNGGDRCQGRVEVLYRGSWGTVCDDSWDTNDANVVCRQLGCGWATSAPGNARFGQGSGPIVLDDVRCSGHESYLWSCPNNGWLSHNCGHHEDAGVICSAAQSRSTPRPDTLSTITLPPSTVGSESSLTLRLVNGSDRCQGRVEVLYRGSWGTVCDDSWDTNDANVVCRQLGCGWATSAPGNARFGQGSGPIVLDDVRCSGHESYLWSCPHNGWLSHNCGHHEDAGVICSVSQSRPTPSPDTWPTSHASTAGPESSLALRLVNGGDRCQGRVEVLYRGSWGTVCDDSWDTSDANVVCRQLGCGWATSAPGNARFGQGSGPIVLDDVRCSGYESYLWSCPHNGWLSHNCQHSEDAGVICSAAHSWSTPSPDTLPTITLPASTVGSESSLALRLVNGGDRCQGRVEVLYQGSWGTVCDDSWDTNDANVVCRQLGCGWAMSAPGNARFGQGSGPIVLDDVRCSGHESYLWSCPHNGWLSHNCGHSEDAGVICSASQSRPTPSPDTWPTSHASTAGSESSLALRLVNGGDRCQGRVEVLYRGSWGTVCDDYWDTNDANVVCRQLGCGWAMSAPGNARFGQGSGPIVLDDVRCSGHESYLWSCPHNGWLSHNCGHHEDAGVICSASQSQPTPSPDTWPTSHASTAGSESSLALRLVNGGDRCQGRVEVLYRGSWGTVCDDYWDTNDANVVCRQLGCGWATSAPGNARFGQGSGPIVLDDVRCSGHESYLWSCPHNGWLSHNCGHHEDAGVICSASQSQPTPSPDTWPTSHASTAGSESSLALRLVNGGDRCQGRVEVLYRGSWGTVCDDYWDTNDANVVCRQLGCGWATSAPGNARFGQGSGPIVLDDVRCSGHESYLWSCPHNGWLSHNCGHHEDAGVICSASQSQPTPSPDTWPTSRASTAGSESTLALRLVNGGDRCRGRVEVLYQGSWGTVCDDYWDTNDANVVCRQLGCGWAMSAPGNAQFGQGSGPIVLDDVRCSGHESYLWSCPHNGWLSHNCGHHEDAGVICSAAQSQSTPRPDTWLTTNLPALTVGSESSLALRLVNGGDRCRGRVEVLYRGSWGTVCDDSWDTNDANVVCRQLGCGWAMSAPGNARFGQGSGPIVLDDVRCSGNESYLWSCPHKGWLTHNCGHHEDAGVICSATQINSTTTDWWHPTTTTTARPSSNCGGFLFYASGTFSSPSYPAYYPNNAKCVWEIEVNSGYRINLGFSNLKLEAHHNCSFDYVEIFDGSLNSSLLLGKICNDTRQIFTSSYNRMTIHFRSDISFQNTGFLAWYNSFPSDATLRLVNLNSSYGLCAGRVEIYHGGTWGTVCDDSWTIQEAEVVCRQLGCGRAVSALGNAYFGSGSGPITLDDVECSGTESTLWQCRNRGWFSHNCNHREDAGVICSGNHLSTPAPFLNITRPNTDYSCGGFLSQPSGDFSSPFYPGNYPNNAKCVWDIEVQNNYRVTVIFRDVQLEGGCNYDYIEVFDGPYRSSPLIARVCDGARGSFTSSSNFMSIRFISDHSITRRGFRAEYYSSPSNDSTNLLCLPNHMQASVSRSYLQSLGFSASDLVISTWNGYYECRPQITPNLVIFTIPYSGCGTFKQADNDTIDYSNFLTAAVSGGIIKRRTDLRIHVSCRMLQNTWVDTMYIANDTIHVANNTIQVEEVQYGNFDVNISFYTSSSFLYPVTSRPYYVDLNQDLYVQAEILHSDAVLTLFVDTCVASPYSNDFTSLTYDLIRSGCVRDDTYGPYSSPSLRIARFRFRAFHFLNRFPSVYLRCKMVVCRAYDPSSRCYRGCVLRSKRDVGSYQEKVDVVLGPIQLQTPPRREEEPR

As for “A3VP1^SspB (S. gordonii DL1 SspB, residues 386-805) (from UniProt P16952 386-805)”, the Ka in assay [1] was 3.19e+07 M⁻¹; in assay [2], 1.38e+06 M⁻¹; with iSRCR123 (human), 5.53e+07 M⁻¹. The Kd in assay [1] amounted to 0.0314 µM; in assay [2] it was 0.727 µM; in assay [3] it was 0.338 µM; with iSRCR123 (human), 0.0181 µM.

Consider “C123^SspB (S. gordonii DL1 SspB, residues 913-1406) (from UniProt P16952 913-1406)”, for which the Ka turned out to be 1.07e+07 M⁻¹ in assay [1] and 921000 M⁻¹ in assay [3]. Moreover, the values for the dissociation constant (Kd) in assay [1], in assay [2] and in assay [3] were 0.0934 µM, 6.22 µM and 1.09 µM, respectively.
